The results in this text go back to publication PMC4526461 (The Biochemical journal, 2015).

Changes are numbered by the printed parent chain. “And” between values parts separate entries of the source, which are not always exact repeats. Equal entries are not always repeated.

As a reminder, the stoichiometry N is the number of molecules, sites or subunits per partner or assembly.

This data set concerns the molecule itself. The data set can be described thus: non-reducing SDS/PAGE and Western blot.

B1: recombinant mouse neutral sphingomyelinase-2 with C-terminal FLAG and 6xHis tags (pET-32a-nSMase-2-FLAG-6xHis), expressed in Rosetta2 (DE3) pLysS (enzyme, UniProt Q9JJY3 1-655, looked up)
chain: MVLYTTPFPNSCLSALHAVSWALIFPCYWLVDRLLASFIPTTYEKRQRADDPCCLQLFCTVLFTPVYLALLVAALPFAFLGFIFWSPLQSARRPYSYSRLEDKNPAGGAALLSEWKGTGAGKSFCFATANVCLLPDSLARLNNVFNTQARAKEIGQRIRNGAARPQIKIYIDSPTNTSISAASFSSLVSPQGGDGSRAVPGSIKRTASVEYKGDGGRHPSDEAANGPASGEQADGSLEDSCIVRIGGEEGGRPQEADDPAAGSQARNGAGGTPKGQTPNHNQRDGDSGSLGSPSASRESLVKARAGQDSGGSGEPGANSKLLYKTSVVKKAAARRRRHPDEAFDHEVSAFFPANLDFLCLQEVFDKRAAAKLKEQLHGYFEYILYDVGVYGCHGCCNFKCLNSGLFFASRYPVMDVAYHCYPNGCSFDALASKGALFLKVQVGSTPQDQRIVGYIACTHLHAPPEDSAVRCEQLDLLQDWLADFRKSTSSTSTANPEELVVFDVICGDLNFDNCSSDDKLEQQHSLFTRYKDPCRLGPGEEKPWAIGTLLDTNGLYDEDVCTPDNLQKVLESEEGRREYLAFPTSKSPGAGQKGRKDLLKGNGRRIDYMLHAEEGLCPDWKAEVEEFSFITQLSGLTDHLPVAMRLMVSAGEEEA
B1: the “stoichiometry N” value was 2 and 3.

B2: nSMase-2 single-point mutant Cys561Ser (enzyme, mouse, UniProt Q9JJY3 1-655, looked up)
chain: B1 chain with C561S
B2: the “decrease in multimer to monomer ratio against wild-type” value was approximately 50%.

B3: nSMase-2 single-point mutant Cys617Ser (enzyme, mouse, UniProt Q9JJY3 1-655, looked up)
chain: B1 chain with C617S
With B3, the “decrease in multimer to monomer ratio against wild-type” value was approximately 50%.
